The target of the experiment is T1, wild-type Aβ1-40 (Homo sapiens, UniProt P05067).
T1 construct: lipophile probe (4-dodecylaminocarbonylfluorene-9-ylmethylsuccinimidyl carbonate), non-protein purification handle (N); made in house; host or cells: chemical solid phase synthesis (no expression host)
The experiment can be described thus: Inhibition of amyloidogenesis: hexapeptides co-incubated with wild-type Aβ1-40 (ultrastructural and histochemical study). The class given is biochemical. The conditions noted are these: for effect on fibrillogenesis of Aβ1-40: co-incubated with wild-type Aβ1-40, equimolar or in excess (hexapeptide:Aβ1-40=5:1). Here is the method: For the ultrastructural investigation, 5 μl of suspension of wild-type Aβ1-40, mutated Aβ1-40 and their equimolar mixture were drawn at incubation times in the range of 1 hour-20 days, deposited on nickel screen covered with Formvar-Carbon for 5 minutes, negatively coloured with an over-saturated solution of uranyl and observed under electronic microscope (EM109 Zeiss). On the twentieth day of incubation, aliquots of the samples were centrifuged at 15,000 g for 15 minutes. The pellets thus obtained were fixed in 2.5% glutaraldehyde in phosphate buffer, pH 7.4, post-fixed in 1% osmium tetroxide, dehydrated in acetone and included in epoxy rein (Spurr, Electron Microscopy Sciences). Ultrafine sections (500 Å) were collected on copper screens, coloured with uranyl acetate and lead citrate and observed under the electronic microscope.
In order to verify if and in what measure the aggregates were constituted by amyloid, 5 μl of solution of each sample, for the different incubation times, was collected on polylysinated slides (Bio-Optical), coloured with Congo Red and examined with polarised light microscope (Nikon Eclipse E-800).
The two hexapeptides were co-incubated with wild-type Aβ1-40 at equimolar concentration or in excess (hexapeptide:Aβ1-40=5:1). The mixtures were prepared for the ultrastructural and histochemical study as described in example 2.

T1 sequence (P05067 672-711): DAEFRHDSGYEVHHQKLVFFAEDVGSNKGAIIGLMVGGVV

Take DAEFRH: the “effect on fibrillogenesis of Aβ1-40” value is reported as “inhibit the fibrillogenesis of Aβ1-40”.

With “DVEFRH [synthetic peptide, first six amino acids of Aβ with valine in place of alanine in position 2]”, the “effect on fibrillogenesis of Aβ1-40” value was “inhibit the fibrillogenesis of Aβ1-40”. The “inhibitory activity on fibrillogenesis relative to wild-type hexapeptide” value (co-incubated with wild-type Aβ1-40, equimolar or 5:1) was “more active than the corresponding wild-type”.
